For series [1], the target named is T1, peptide substrate EFDLELIEED (SEQ ID NO: 31).
T1 chain: EFDLELIEED

The target of series [2] is peptide substrates with amino acid substitutions (among SEQ ID NO: 32, 33, 34, 35).
Series [3] concerns the target T2, RP1 retropepsin inhibitor Ac-Leu-Val-Phe-aldehyde (Bachem N 1395.0005).
T2 chain: LVF

Series [4] addresses T3, RP2 retropepsin inhibitor Ac-Leu-Leu-Met-aldehyde (Bachem N 1315.0005).
T3 chain: LLM

In series [5] the target is T4, RP3 retropepsin inhibitor Ac-Leu-Leu-Nle-aldehyde (Bachem N 1320.0005).
T4 chain: LLX

The target in series [6] is casein substrate sold under the name Enzchek (Molecular Probes).
Series [7] addresses T5, corneodesmosin extracted from human stratum corneum, Q15517.
T5 chain: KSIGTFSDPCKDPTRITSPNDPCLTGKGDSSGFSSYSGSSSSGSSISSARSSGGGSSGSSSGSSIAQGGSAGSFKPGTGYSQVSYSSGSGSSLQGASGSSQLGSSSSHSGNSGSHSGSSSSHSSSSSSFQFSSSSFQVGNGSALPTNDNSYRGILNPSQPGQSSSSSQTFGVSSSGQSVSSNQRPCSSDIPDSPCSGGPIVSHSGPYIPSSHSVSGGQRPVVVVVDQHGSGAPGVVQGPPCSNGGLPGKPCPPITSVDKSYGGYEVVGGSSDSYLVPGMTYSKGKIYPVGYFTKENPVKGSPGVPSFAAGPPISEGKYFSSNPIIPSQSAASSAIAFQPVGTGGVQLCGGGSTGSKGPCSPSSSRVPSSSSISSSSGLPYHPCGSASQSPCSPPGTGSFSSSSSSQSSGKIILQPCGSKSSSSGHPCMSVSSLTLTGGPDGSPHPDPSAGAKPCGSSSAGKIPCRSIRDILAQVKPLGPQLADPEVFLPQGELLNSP

Series [8] deals with oxidized beta-chain of insulin (Sigma).
oxidized beta-chain of insulin (Sigma), sequence (chain, as listed by the source): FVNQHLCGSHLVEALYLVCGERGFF

B1: recombinant fusion protein GST-SASPase delta1-84 (SEQ ID NO: 4) (protein)
chain: MAGSGARSEEGRRQHAFVPEPFDGANVVPNLWLHSFEVINDLNHWDHITKLRFLKESLRGEALGVYNRLSPQDQGDYGTVKEALLKAFGVPGAAPSHLPKEIVFANSMGKGYYLKGKIGKVPVRFLVDSGAQVSVVHPNLWEEVTDGDLDTLQPFENVVKVANGAEMKILGVWDTAVSLGKLKLKAQFLVANASAEEAIIGTDVLQDHNAILDFEHRTCTLKGKKFRLLPVGGSLEDEFDLELIEEDPSSEEGRQELSH
As to B1, the “autocleavage in acetate buffer pH 4.5, SDS-PAGE over time” value is on record as “A decrease in the whole form GST-SASPase C27 is observed over time, which demonstrates an autocleavage and, consequently, an autoactivation”. In addition, in series [1], the “hydrolysis of quenched peptide substrate (fluorescence 340/450 nm)” value is reported as “the natural (wt) peptide is effectively hydrolyzed by the SASPase”. Moreover, the “hydrolysis of quenched peptide substrate (fluorescence 340/450 nm)” value in series [2] is reported as “amino acid substitutions in the sequence of this peptide can generate substrates for which the SASPase has greater affinity”.

B2: activated SASPase (SEQ ID NO: 6) (protein)
chain: ANSMGKGYYLKGKIGKVPVRFLVDSGAQVSVVHPNLWEEVTDGDLDTLQPFENVVKVANGAEMKILGVWDTAVSLGKLKLKAQFLVANASAEEAIIGTDVLQDHNAILDFEHRTCTLKGKKFRLLPVGGSLEDEFDLE
For B2, the “kinetics for casein hydrolysis (fluorescence 485/535 nm)” value in series [3] was “the kinetics for casein hydrolysis, in the presence of the RP1 and RP2 retropepsin inhibitors, are lower than the control”; in [4], “the kinetics for casein hydrolysis, in the presence of the RP1 and RP2 retropepsin inhibitors, are lower than the control”; in series [5], “the kinetics for casein hydrolysis, in the presence of the RP3 retropepsin inhibitor, are significantly higher than those obtained under the control conditions”. Moreover, in [6], the caseinolytic activity result is recorded as “Its caseinolytic activity was, moreover, demonstrated (results not shown)”. For the same protein, the % Residual corneodesmosin T24 h/T0*100 in [7] was 75%. Also, the “hydrolysis of the substrate followed by HPLC” value in series [8] was “These results show that the activated SASPase is capable of degrading insulin”.
